For assay [1], the target named is T1, recombinant cynomolgus monkey FGFR2b (cynomolgus monkey).
T1 construct: extracellular domain; bought; also called cynomolgus macaque FGFR2b
Put plainly: ELISA, antibody 1ug/mL.

For assay [2], the target named is T2, FGFR2c (acro) (UniProt P21802 22-377). Nature of the assay: ELISA, antibody 10 µg/mL.
Assay [3] addresses T2, FGFR2c (acro). Nature of the assay: ELISA.
In assay [4] the target is T3, human FGFR2b (Kaixia Biotechnology, catalog number FGR-HM1BB) (human, UniProt P21802-3 22-378).
T3 construct: extracellular domain; bought; also called hFGFR2b; human FGFR2b protein
Put plainly: ELISA, FGFR2b coated at 1 µg/ml.

A further assay deals with T4, FGFR2b on KATO III cells (human, UniProt P21802-3 22-822).
T4 construct: whole, on cells; also called KATO III cells that overexpress FGFR2b
Nature of the assay: flow cytometry, KATO III cells.

Assay [5] has as its target T3, human FGFR2b (Kaixia Biotechnology, …). Nature of the assay: BLI, antibody on AHC2 sensor.
For assay [6], the target named is T5, extracellular domain of FGFR2c protein (Example 1) (UniProt P21802 22-377).
T5 construct: extracellular domain
Put plainly: phage ELISA.

Assay [7] addresses T5, extracellular domain of FGFR2c protein …. Nature of the assay: phage ELISA. The source holds these as a separate data set.
For assay [8], the target named is T6, FGFR4 (acro) (UniProt P22455 22-369).
T6 sequence (looked up): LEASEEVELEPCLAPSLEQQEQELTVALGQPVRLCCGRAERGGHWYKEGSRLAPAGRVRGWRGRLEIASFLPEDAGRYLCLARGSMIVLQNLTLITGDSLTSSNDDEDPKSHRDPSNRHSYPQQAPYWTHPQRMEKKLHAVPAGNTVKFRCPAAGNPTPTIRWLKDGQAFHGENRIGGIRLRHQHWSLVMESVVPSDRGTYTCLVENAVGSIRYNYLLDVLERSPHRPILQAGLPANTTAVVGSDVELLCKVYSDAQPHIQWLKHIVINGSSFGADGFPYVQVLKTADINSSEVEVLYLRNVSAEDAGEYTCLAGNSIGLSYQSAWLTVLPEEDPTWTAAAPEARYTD
Put plainly: ELISA, antibody 10 µg/mL.

The target in assay [9] is T6, FGFR4 (acro). Put plainly: ELISA.

Residue numbers refer to the chain shown, from its start.

T2 sequence (P21802 22-377): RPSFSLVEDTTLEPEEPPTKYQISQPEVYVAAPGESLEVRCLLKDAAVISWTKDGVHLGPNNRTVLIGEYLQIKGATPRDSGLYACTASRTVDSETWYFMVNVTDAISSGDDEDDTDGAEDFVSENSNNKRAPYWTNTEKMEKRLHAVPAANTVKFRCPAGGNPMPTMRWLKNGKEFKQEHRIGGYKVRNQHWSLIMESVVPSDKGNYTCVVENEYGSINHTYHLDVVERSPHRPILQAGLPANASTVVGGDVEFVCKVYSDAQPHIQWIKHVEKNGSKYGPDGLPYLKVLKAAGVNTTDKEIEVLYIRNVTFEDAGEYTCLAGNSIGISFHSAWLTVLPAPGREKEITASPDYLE
T5 sequence (P21802 22-377): as above
T4 sequence (P21802 other isoform, or with tags, fused parts or gaps): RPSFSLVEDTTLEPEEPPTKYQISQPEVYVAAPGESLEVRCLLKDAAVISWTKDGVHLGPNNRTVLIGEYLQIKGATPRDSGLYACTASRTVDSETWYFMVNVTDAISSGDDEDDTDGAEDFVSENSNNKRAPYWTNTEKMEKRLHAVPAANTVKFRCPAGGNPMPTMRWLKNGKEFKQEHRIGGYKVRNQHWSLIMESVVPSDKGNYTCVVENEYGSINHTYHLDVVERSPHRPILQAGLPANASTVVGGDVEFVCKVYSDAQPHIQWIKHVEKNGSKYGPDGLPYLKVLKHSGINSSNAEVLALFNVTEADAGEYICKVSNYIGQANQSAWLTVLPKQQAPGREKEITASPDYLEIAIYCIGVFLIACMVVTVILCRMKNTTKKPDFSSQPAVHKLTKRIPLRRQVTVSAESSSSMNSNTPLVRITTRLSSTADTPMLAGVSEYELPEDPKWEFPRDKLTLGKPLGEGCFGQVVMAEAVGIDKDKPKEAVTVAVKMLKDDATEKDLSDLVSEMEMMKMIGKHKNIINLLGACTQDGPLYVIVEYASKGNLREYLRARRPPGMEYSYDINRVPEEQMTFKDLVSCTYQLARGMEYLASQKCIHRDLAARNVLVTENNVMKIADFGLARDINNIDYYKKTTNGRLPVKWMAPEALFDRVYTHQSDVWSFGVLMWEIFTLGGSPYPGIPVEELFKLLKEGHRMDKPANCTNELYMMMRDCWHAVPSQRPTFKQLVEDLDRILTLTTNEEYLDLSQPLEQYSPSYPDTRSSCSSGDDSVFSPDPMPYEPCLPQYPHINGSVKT
T3 sequence (P21802 other isoform, or with tags, fused parts or gaps): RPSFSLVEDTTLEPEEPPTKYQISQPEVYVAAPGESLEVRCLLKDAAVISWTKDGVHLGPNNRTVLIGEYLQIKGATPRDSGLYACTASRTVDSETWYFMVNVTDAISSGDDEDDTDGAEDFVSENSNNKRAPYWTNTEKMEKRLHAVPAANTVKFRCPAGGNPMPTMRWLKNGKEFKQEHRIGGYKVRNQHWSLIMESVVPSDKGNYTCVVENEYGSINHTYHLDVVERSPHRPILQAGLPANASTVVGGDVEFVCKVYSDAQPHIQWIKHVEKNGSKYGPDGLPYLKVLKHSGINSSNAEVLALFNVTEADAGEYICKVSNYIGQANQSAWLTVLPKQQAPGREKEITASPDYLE

B1: 3D7 scFv-Fc (Fc fusion)
chain: QVQLQQSGAELVKPGASVKMSCKASGYTFSFYNMHWVKRTPGRGLEWIGLIYPDNGDTSYNQKFKGKATLTADTSSSTAYMQLSSLTSEDSAVYYCARGGLDYWGQGTSLTVSSGGGGSGGGGSGGGGSEIVLTQSPASLAVSLGQRATISCKASQSVDYDGDSYMNWYQQKPGQPPKLLIYGISNRFSGVPDRFSGSGSGTDFTLKISTIKPEDLGMYYCLQGTHQPYTFGGGTKLEIKESKYGPPCPPCPAPEAAGGPSVFLFPPKPKDTLMISRTPEVTCVVVDVSQEDPEVQFNWYVDGVEVHNAKTKPREEQFNSTYRVVSVLTVLHQDWLNGKEYKCKVSNKGLPSSIEKTISKAKGQPREPQVYTLPPSQEEMTKNQVSLTCLVKGFYPSDIAVEWESNGQPENNYKTTPPVLDSDGSFFLYSKLTVDKSRWQEGNVFSCSVMHEALHNHYTQKSLSLSLG
notes: scFv-Fc dimer
For the molecule B1, the “OD (450 nm) value” in [1] stood at 3.3. Further, the “OD (450 nm) value” in the assay with FGFR2c (acro) [2] came to 0.127. For the same molecule, the binding result with FGFR2c (acro) [3] is reported as “no binding (tested: 10 µg/mL)”. This molecule also displayed an EC50 in [4] of 0.0369 µg/mL. The molecule further had an EC50 in the assay with FGFR2b on KATO III cells of 0.259 µg/mL. In [5], this molecule displayed a Kd of 8.58 nM, a koff of 0.00203 s⁻¹ and an on-rate constant (kon) of 236000 M⁻¹ s⁻¹.

B2: 3G10 scFv-Fc (Fc fusion)
chain: EVQLQQSGPELVKPGASVKMSCKASGYTFATYNMHWVKQTTGQGLEWIGAIYPDNGDTFYNRKFKDKATLTADKSSTTAYMQLSSLTSEDSAVYYCARGDFAYWGQGTLVTVSAGGGGSGGGGSGGGGSDVLMTQSPASLSASVGETVTITCGASENIYGALNWYQRKQGKSPQLLIYGATNLADGMSSRFSGSGSGRQYSLKISSLHPDDVATYYCQNVLSTPYTFGGGTKLEMKESKYGPPCPPCPAPEAAGGPSVFLFPPKPKDTLMISRTPEVTCVVVDVSQEDPEVQFNWYVDGVEVHNAKTKPREEQFNSTYRVVSVLTVLHQDWLNGKEYKCKVSNKGLPSSIEKTISKAKGQPREPQVYTLPPSQEEMTKNQVSLTCLVKGFYPSDIAVEWESNGQPENNYKTTPPVLDSDGSFFLYSKLTVDKSRWQEGNVFSCSVMHEALHNHYTQKSLSLSLG
notes: scFv-Fc dimer
With B2, the “OD (450 nm) value” in [1] is 3.12. Also, the “OD (450 nm) value” with FGFR2c (acro) [2] was determined as 0.096. Besides, the binding result with FGFR2c (acro) [3] is listed as “no binding (tested: 10 µg/mL)”. This molecule returned an EC50 in assay [4] of 0.0276 µg/mL. The molecule further displayed an EC50 with FGFR2b on KATO III cells of 0.149 µg/mL. In assay [5], binding was characterised by a dissociation constant (Kd) of 6.25 nM, the koff came out at 0.00199 s⁻¹ and the association rate constant (kon) amounted to 318000 M⁻¹ s⁻¹.

B3: 2B2 scFv displayed on phage (scFv)
scFv: QLQLQQSGAELVKPGASVKMSCKASGYTFASYNLHWVKQTPGQGLEWIGLIYPENGDTSYNQKFKDKATLTADKSSTTAYIQLSSLASEDSAVYFCARGGFDYWGQGTTLTVSSGGGGSGGGGSGGGGSDIVMTQSQKFMSTSVGDRVSVTCKASQNVGTNVAWYQQKPGQSPKALIYSASYRYSGVPDRFTGSGSGTDYTLTISSVQAEDLALYYCQQHYSTPYTFGGGTKLELK
As for B3, the “OD (450 nm) value” in assay [6] was found to be 0.051. Also, the binding result in [7] is given as “no binding”.

B4: 3G10 scFv displayed on phage (scFv)
scFv: EVQLQQSGPELVKPGASVKMSCKASGYTFATYNMHWVKQTTGQGLEWIGAIYPDNGDTFYNRKFKDKATLTADKSSTTAYMQLSSLTSEDSAVYYCARGDFAYWGQGTLVTVSAGGGGSGGGGSGGGGSDVLMTQSPASLSASVGETVTITCGASENIYGALNWYQRKQGKSPQLLIYGATNLADGMSSRFSGSGSGRQYSLKISSLHPDDVATYYCQNVLSTPYTFGGGTKLEMK
Regarding B4, the “OD (450 nm) value” in assay [6] stood at 0.042. Moreover, in [7], the binding result is given as “no binding”.

B5: 3A3 scFv displayed on phage (scFv)
scFv: QVQLQQSGAELVKPGASVKMSCKASGYTFTTYNIHWVRQTPGQGLEWIGLIYPDNGDTSYNQKFKAKATLTADKSSSTAYMHLSSLTSEDSAVYYCARGGFDYWGQGTTLTVSSGGGGSGGGGSGGGGSDIVMTQSHKFMSTSVGDRVSITCKASQDVNTDVSWYQQKPGQSPKLLIYSASYRYTGVPTRFTGSGSGTDFTFTISGVQAEDLADYYCQQHYNTPYTFGGGTRLEIK
As for B5, the “OD (450 nm) value” in assay [6] is 0.05. Besides, in assay [7], the binding result is “no binding”.

B6: 1D7 scFv-Fc (Fc fusion)
chain: QIQLQQSGAELVKPGASVKMSCKASGYTFRYYNMHWVKRTPGQGLEWIGLIYPDNGDTSYNQKFKGKATLTADTSSSTAYMQLSSLTSEDSAVYYCARGGLDYWGQGTSLTVSSGGGGSGGGGSGGGGSDIQMTQSPSSMSASLGDRITITCQATQDIVKNLNWYQQKPGKPPSFLIYYATELAEGVPSRFSGSGSGSDYSLTISNLESEDFADYYCLQFYEFPLTFGAGTKLELKESKYGPPCPPCPAPEAAGGPSVFLFPPKPKDTLMISRTPEVTCVVVDVSQEDPEVQFNWYVDGVEVHNAKTKPREEQFNSTYRVVSVLTVLHQDWLNGKEYKCKVSNKGLPSSIEKTISKAKGQPREPQVYTLPPSQEEMTKNQVSLTCLVKGFYPSDIAVEWESNGQPENNYKTTPPVLDSDGSFFLYSKLTVDKSRWQEGNVFSCSVMHEALHNHYTQKSLSLSLG
notes: scFv-Fc dimer
In the case of B6, the “OD (450 nm) value” is 0.156 with FGFR4 (acro) [8], 3.17 in [1] and 0.091 with FGFR2c (acro) [2]. Also, the binding result with FGFR2c (acro) [3] and in the assay with FGFR4 (acro) [9] was “no binding (tested: 10 µg/mL)” in each case. For the same molecule, the values for the EC50 (in assay [4]; in the assay with FGFR2b on KATO III cells) were 0.0154 µg/mL and 0.167 µg/mL, respectively. In assay [5], this molecule displayed a Kd of 4.51 nM. In [5], this molecule came in with a koff of 0.00208 s⁻¹. Moreover, the kon in assay [5] is 460000 M⁻¹ s⁻¹.

B7: 3B7 scFv-Fc (Fc fusion)
chain: EVQLQQSGAELVKPGASVKMSCKASGYTFRYYNMHWVKRTPGQGLEWIGLIYPDNGDTSYNQKFKGKATLTADTSSSTAYMQLSSLTSEDSAVYYCARGGFDYWGQGTTLTVSSGGGGSGGGGSGGGGSDIQMTQSPASLSASVGETVTITCGASENIYGALNWYQRKQGKSPQLLIYGATNLADGMSSRFSGSGSGRQYSLKISSLHPDDVATYYCQNVLSTPYTFGGGTKLELKESKYGPPCPPCPAPEAAGGPSVFLFPPKPKDTLMISRTPEVTCVVVDVSQEDPEVQFNWYVDGVEVHNAKTKPREEQFNSTYRVVSVLTVLHQDWLNGKEYKCKVSNKGLPSSIEKTISKAKGQPREPQVYTLPPSQEEMTKNQVSLTCLVKGFYPSDIAVEWESNGQPENNYKTTPPVLDSDGSFFLYSKLTVDKSRWQEGNVFSCSVMHEALHNHYTQKSLSLSLG
notes: scFv-Fc dimer
With B7, the “OD (450 nm) value” was 0.116 in the assay with FGFR4 (acro) [8], 3.12 in assay [1] and 0.089 with FGFR2c (acro) [2]. Further, the binding result with FGFR2c (acro) [3] and with FGFR4 (acro) [9] was “no binding (tested: 10 µg/mL)” throughout. The concentration giving a half-maximal response (EC50) in assay [4] came out at 0.0147 µg/mL; in the assay with FGFR2b on KATO III cells it was 0.117 µg/mL. In addition, binding in assay [5] was characterised by a dissociation constant (Kd) of 7.6 nM. The molecule also displayed a dissociation rate constant (koff) in [5] of 0.00203 s⁻¹. The molecule also had an on-rate constant (kon) in assay [5] of 267000 M⁻¹ s⁻¹.

B8: 3F5 scFv-Fc (Fc fusion)
chain: B7 chain with V2I, F101L, Q132V, M133L, L235I
notes: scFv-Fc dimer
As for B8, the entries for the “OD (450 nm) value” (in the assay with FGFR4 (acro) [8]; in assay [1]; in the assay with FGFR2c (acro) [2]) were 0.145, 3.17 and 0.111, respectively. In addition, the binding result with FGFR2c (acro) [3] and in the assay with FGFR4 (acro) [9] was “no binding (tested: 10 µg/mL)” throughout. Besides, the 50% effective concentration (EC50) in [4] is 0.0159 µg/mL; with FGFR2b on KATO III cells it was 0.105 µg/mL. Besides, the Kd in assay [5] turned out to be 5.1 nM. Also, the dissociation rate constant (koff) in assay [5] was found to be 0.00143 s⁻¹. In addition, the on-rate constant (kon) in assay [5] came out at 281000 M⁻¹ s⁻¹.

B9: 1A3 scFv-Fc (Fc fusion)
chain: QVQLQQPGAELVKPGASVKMSCKASGYTFASYNLHWVKQTPGQGLEWIGLIYPENGDTSYNQKFKGKATLTADKSSSTAYIQLSSLTSEDSAVYFCARGGFDYWGQGTTLTVSQGGGGSGGGGSGGGGSDIQMTQSPASLSASVGETVTITCGASENIYGALNWYQRKQGKSPQLLIYGATNLADGMSSRFSGSGSGRQYSLKISSLHPDDVATYYCQNVLSTPYTFGGGTKLEIKESKYGPPCPPCPAPEAAGGPSVFLFPPKPKDTLMISRTPEVTCVVVDVSQEDPEVQFNWYVDGVEVHNAKTKPREEQFNSTYRVVSVLTVLHQDWLNGKEYKCKVSNKGLPSSIEKTISKAKGQPREPQVYTLPPSQEEMTKNQVSLTCLVKGFYPSDIAVEWESNGQPENNYKTTPPVLDSDGSFFLYSKLTVDKSRWQEGNVFSCSVMHEALHNHYTQKSLSLSLG
notes: scFv-Fc dimer
As to B9, the “OD (450 nm) value” with FGFR4 (acro) [8] came to 0.099; in assay [1] it was 3.27. Further, the binding result with FGFR4 (acro) [9] is “no binding (tested: 10 µg/mL)”. In addition, the EC50 in [4] was 0.00818 µg/mL; in the assay with FGFR2b on KATO III cells, 0.0656 µg/mL. The molecule also registered a Kd in assay [5] of 12.2 nM. The dissociation rate constant (koff) in assay [5] is 0.00477 s⁻¹. In assay [5], this molecule showed an on-rate constant (kon) of 392000 M⁻¹ s⁻¹.

B10: 3C9 scFv-Fc (Fc fusion)
chain: B7 chain with V2I, T28I, F101L, T134I, L235I
notes: scFv-Fc dimer
Consider B10, for which the “OD (450 nm) value” was 0.139 with FGFR4 (acro) [8], 3.25 in [1] and 0.118 in the assay with FGFR2c (acro) [2]. The binding result in the assay with FGFR2c (acro) [3] and with FGFR4 (acro) [9] was “no binding (tested: 10 µg/mL)” in each case. In addition, the concentration for a half-maximal effect (EC50) in assay [4] stood at 0.0147 µg/mL; with FGFR2b on KATO III cells, 0.253 µg/mL. In addition, the Kd in assay [5] was determined as 2.7 nM. The molecule further yielded an off-rate constant (koff) in assay [5] of 0.000954 s⁻¹. In [5], this molecule returned an on-rate constant (kon) of 353000 M⁻¹ s⁻¹.
